Reference: article PMC10942344 (bioRxiv, 2024)

How the values were obtained:
Test in all cases: SPR
[1] = target: recombinant GP38 of CCHFV 200406546-Turkey (CCHFV 200406546-Turkey, UniProt A0A0U2SQZ0, strain)
[2] = target: recombinant GP38 of CCHFV Oman-199809166 (CCHFV Oman-199809166, UniProt A0A0U3C6Q7, strain)
[3] = target: recombinant GP38 of CCHFV Kosova-Hoti (CCHFV Kosova-Hoti, UniProt B2BSL7, strain)

Measured: Kd

B1: ADI-58048 IgG (antibody, V domains shown)
VH: QLQLQESGPGLVKPSETLSLTCTVSGGSITTSHYYWGWIRQPPGKGLEWVGSMYYSGGIYYNPSLKGRVTISVDTSKNQFSLKLSSVTAADTAVYYCALADAPDDAFDIWGQGTMVTVSS
VL: DIQMTQSPSSLSAFVGDRVTITCRASQSISSYLNWYQQKPGKAPKLLIYAASTLQSGVPSRFSGSGSGTDFTLTISSLQSEDFATYYCQESYSIPFTFGPGTKVDIK
< 0.398 nM: [1] | [2] | [3]
